In one series the target is DB-JBP1 K535A (Leishmania tarentolae, UniProt Q9U6M1 382-561, K535A). As to the kind of experiment: fluorescence anisotropy.
For another series, the target named is DB-JBP1 K436A (Leishmania tarentolae, UniProt Q9U6M1 382-561, K436A). As to the kind of experiment: fluorescence anisotropy.
For the next series, the target named is JBP1 D525A (UniProt Q9U6M1 1-827, D525A). As to the kind of experiment: fluorescence anisotropy.
The next series concerns the target DB-JBP1 D525A (Leishmania tarentolae, UniProt Q9U6M1 382-561, D525A). As to the kind of experiment: SPR.
In another series the target is DB-JBP1 D536A (Leishmania tarentolae, UniProt Q9U6M1 382-561, D536A). As to the kind of experiment: SPR.

Here are results for 3 molecules from PMC3141245.

B1: VSG J-DNA 14-mer (dsDNA)
DNA 1: GGCAGCTGCAACAA
DNA 2: TTGTTGCAGCTGCC
modifications: base J (beta-D-glucosyl-hydroxymethyluracil) replaces T7 of strand 1
In the case of B1, the binding result with DB-JBP1 K535A and with DB-JBP1 K436A was “binds” each time.

B2: VSG T-DNA 14-mer (dsDNA)
DNA 1: GGCAGCTGCAACAA
DNA 2: TTGTTGCAGCTGCC
The molecule B2 gave a Kd with JBP1 D525A of 11.7 µM.

B3: VSG J-DNA 14-mer, biotin (dsDNA)
DNA 1: GGCAGCTGCAACAA
DNA 2: TTGTTGCAGCTGCC
modifications: base J replaces T7 of strand 1
On to B3, for which the binding result with DB-JBP1 D525A is listed as “no binding”; with DB-JBP1 D536A, “binds”.
